What was measured:
mouse DLL3 on CHO cells = molecular target: T1, mouse DLL3 on CHO cells (mouse, UniProt O88516 33-592); assay: flow cytometry (FACS) on CHO cells expressing mouse DLL3
T1 construct: whole, on cells; also called CHO cells expressing mouse DLL3
T1 sequence (looked up): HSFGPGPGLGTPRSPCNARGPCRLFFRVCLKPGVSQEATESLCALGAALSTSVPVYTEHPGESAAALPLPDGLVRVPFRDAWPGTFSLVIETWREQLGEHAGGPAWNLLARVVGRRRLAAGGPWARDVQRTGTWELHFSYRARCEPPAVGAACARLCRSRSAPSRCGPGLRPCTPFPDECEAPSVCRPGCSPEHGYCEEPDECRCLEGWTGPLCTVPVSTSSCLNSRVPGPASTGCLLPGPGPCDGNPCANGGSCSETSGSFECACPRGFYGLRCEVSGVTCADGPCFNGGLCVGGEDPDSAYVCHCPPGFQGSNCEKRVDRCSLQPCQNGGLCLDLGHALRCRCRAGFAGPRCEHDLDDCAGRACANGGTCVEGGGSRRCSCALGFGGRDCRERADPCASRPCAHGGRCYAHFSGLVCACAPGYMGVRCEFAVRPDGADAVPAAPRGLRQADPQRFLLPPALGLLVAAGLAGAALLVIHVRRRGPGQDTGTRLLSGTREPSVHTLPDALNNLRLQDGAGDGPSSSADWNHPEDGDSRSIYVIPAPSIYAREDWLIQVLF
Method: (§1) Additional experiments were carried out to further characterize the binding properties of the anti-DLL3 constructs. Binding properties tested include dissociation constant (KD), off-rate (koff), binding to DLL3 protein by ELISA and binding to CHO cells expressing human, cyno or mouse DLL3. To obtain off-rate (koff), human biotinylated DLL3 was immobilized on Octet SA tips, and cynomolgus or mouse DLL3 was immobilized on Octet AR2G tips. For each DLL3 protein, the binding to a dilution series of each anti-DLL3 construct was measured using Fortebio Octet Red. The dissociation constant (KD), off-rate (koff) and other kinetic parameters for each anti-DLL3 construct were calculated using a 1:1 binding model. In addition, binding of these anti-DLL3 constructs to CHO cells expressing human, cyno or mouse DLL3 protein was analyzed using flow cytometry (FACS).

[1] = molecular target: T2, recombinant human DLL3 protein (human, UniProt Q9NYJ7 27-492, limits assumed); assay: Fortebio Octet Red, DLL3 immobilised on tips, dilution series of the VHH, 1:1 binding model; kon error 2.27E+03; Full R2 0.9522
T2 construct: also called rhu DLL3; human biotinylated DLL3
T2 sequence (looked up): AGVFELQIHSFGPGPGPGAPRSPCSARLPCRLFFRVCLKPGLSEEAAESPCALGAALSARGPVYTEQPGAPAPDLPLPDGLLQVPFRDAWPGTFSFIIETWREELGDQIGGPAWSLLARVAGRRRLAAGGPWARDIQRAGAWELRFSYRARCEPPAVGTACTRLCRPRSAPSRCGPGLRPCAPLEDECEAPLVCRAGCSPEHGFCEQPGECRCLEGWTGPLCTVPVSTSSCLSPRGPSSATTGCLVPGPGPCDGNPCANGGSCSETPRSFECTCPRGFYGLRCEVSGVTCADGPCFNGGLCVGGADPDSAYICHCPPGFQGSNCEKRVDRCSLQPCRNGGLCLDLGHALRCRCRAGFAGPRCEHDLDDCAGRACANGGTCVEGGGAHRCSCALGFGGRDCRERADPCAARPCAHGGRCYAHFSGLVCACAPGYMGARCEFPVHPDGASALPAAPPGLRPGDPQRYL
Method: as §1

DLL3 (ELISA DLL3) = molecular target: T3, DLL3 (ELISA DLL3); assay: ELISA, ratio of the signal on DLL3 to the signal on the control
T3 construct: also called DLL3 protein in ELISA
T3 chain: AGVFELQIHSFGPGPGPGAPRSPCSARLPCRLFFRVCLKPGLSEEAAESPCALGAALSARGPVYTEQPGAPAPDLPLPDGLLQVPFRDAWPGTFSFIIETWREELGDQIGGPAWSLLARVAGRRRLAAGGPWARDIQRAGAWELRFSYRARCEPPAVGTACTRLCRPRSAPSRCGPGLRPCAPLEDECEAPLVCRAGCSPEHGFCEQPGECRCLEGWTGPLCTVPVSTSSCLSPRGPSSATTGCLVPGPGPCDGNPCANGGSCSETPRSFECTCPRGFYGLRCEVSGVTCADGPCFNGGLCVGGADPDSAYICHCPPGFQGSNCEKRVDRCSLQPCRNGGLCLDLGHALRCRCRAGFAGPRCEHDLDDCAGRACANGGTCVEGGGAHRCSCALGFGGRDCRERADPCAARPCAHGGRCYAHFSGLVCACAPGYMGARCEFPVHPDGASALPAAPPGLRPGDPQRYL

[2] = molecular target: T4, DLL3 target antigen coated on Octet SA tips (binning experiment) (Homo sapiens (Human), UniProt Q9NYJ7 27-492, Probably biotinylated for capture on streptavidin (SA) tips. The site is not stated.); assay: Octet binning on DLL3-coated SA tips; competitor: 3HCE56
T4 sequence: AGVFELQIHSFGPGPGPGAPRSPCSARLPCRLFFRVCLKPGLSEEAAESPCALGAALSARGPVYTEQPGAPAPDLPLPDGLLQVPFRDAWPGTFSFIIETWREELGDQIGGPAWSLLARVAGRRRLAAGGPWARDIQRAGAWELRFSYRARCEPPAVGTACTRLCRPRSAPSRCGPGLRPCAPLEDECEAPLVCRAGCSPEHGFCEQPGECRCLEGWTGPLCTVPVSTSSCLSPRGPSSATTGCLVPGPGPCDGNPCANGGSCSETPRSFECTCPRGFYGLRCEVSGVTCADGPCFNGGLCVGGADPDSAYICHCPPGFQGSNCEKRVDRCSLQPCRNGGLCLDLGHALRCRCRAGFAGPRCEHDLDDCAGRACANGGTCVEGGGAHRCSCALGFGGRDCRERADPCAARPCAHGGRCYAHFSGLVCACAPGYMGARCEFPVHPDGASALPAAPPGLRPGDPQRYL
Method: (§2) Antibody binning experiments were carried out for 5 anti-DLL3 VHHs and an anti-human DLL3 BiTE (SEQ ID NO: 756). The target antigen was coated on a series of Octet SA tips. Each series of tips was first soaked in a periplasmic extract containing one specific VHH. After the response signals reached saturation, the tips were transferred to a mix of PEs containing again the first VHH (at the same concentration) plus a different VHH (termed secondary VHH) for each tip of the series. Secondary VHH that still bind the target antigen in the presence of the first VHH will show an increased response, as compared to the binding response of the first VHH alone. This was repeated for each VHH as primary VHH until all VHH were tested against each other in both directions (as primary and as secondary binder). From the response data, the bins were deduced for each VHH. 2HCE117 and 3HCE4 show competition with the human DLL3 BiTEs, whereas 3HCE56 and 3HCE87 show a partial competition.

[3] = molecular target: T4, DLL3 target antigen coated on Octet SA …; assay: Octet binning on DLL3-coated SA tips; competitor: DLL3 BiTEs
Method: as §2

mouse DLL3 protein = molecular target: T5, mouse DLL3 protein (mouse, UniProt O88516 33-490, limits assumed); assay: Octet (DLL3 on AR2G tips), ELISA and FACS; values only in FIG. 3
T5 construct: also called murine DLL3
T5 sequence (looked up): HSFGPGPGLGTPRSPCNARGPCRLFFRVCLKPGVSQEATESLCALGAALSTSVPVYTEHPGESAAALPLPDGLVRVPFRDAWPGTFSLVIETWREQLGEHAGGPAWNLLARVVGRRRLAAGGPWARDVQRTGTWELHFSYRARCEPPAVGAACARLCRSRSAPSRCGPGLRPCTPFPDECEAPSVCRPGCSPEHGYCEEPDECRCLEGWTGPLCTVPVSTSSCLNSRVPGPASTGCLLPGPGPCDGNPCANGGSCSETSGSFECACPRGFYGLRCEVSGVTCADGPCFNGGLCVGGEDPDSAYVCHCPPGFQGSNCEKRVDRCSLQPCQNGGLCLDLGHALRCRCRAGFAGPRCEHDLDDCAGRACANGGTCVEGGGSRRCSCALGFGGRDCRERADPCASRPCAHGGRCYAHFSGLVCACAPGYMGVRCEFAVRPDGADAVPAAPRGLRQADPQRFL

[4] = molecular target: T2, recombinant human DLL3 protein; assay: Fortebio Octet Red, DLL3 immobilised on tips, dilution series of the VHH, 1:1 binding model; koff error 5.76E-06; Full R2 0.9522
Method: as §1

[5] = molecular target: T2, recombinant human DLL3 protein; assay: Fortebio Octet Red, DLL3 immobilised on tips, dilution series of the VHH, 1:1 binding model; KD error 7.00E-11; Full R2 0.9522
Method: as §1

[6] = molecular target: T4, DLL3 target antigen coated on Octet SA …; assay: Octet binning on DLL3-coated SA tips; competitor: 3HCE4
Method: as §2

[7] = molecular target: T4, DLL3 target antigen coated on Octet SA …; assay: Octet binning on DLL3-coated SA tips; competitor: 2HCE27
Method: as §2

[8] = molecular target: T4, DLL3 target antigen coated on Octet SA …; assay: Octet binning on DLL3-coated SA tips; competitor: 3HCE87
Method: as §2

[9] = molecular target: T4, DLL3 target antigen coated on Octet SA …; assay: Octet binning on DLL3-coated SA tips; competitor: 2HCE117
Method: as §2

[10] = molecular target: T2, recombinant human DLL3 protein; assay: Fortebio Octet Red, DLL3 immobilised on tips, dilution series of the VHH, 1:1 binding model; KD error 2.22E-11; Full R2 0.9955
Method: as §1

[11] = molecular target: T2, recombinant human DLL3 protein; assay: Fortebio Octet Red, DLL3 immobilised on tips, dilution series of the VHH, 1:1 binding model; koff error 2.13E-06; Full R2 0.9955
Method: as §1

[12] = molecular target: T2, recombinant human DLL3 protein; assay: Fortebio Octet Red, DLL3 immobilised on tips, dilution series of the VHH, 1:1 binding model; kon error 9.86E+02; Full R2 0.9955
Method: as §1

[13] = molecular target: T2, recombinant human DLL3 protein; assay: Fortebio Octet Red, DLL3 immobilised on tips, dilution series of the VHH, 1:1 binding model; koff error 2.95E-06; Full R2 0.9111
Method: as §1

[14] = molecular target: T2, recombinant human DLL3 protein; assay: Fortebio Octet Red, DLL3 immobilised on tips, dilution series of the VHH, 1:1 binding model; kon error 7.26E+01; Full R2 0.9111
Method: as §1

[15] = molecular target: T2, recombinant human DLL3 protein; assay: Fortebio Octet Red, DLL3 immobilised on tips, dilution series of the VHH, 1:1 binding model; KD error 1.32E-09; Full R2 0.9111
Method: as §1

B1: 3HCE87 anti-DLL3 VHH (VHH)
VHH: QVQLQESGGGLVQAGGSLRLSCAASGFIFDDYIIGWFRQAPGKEREFVAAISWSGSATAYADSVKGRFTISRDNAKNTLYLQMNTLKPEDTAVYYCAASSRGPYNSGSSYDYWGQGTQVTVSS
notes: In the binning assay it was used as a periplasmic extract
For B1, the binding result (mouse DLL3 on CHO cells) was “binds”, the kon [1] was 192000 M⁻¹ s⁻¹ and the DLL3 / control (DLL3 (ELISA DLL3)) was 18.8. The “binning response (unit not given)” value [2] was 204, the “binning response (unit not given)” value [3] was 68.3 and the binding result (mouse DLL3 protein) was “binds”. The koff [4] was 0.00103 s⁻¹, the Kd [5] was 5.35 nM and the “binning response (unit not given)” value [6] was -54.4. The “binning response (unit not given)” value [7] was -48.2, the “binning response (unit not given)” value [8] was 0 and the “binning response (unit not given)” value [9] was 1210.

B2: 3HCE4 anti-DLL3 VHH (VHH)
VHH: QVQLQESGGGLVQAGASLKLSCAVSGRAGSSYDMGWLRQAPGKEREFVAIITWSGNTAYKDSVKGRFIISRDNAKNTVYLEMNSLAPEDTAVYYCAAALSEKKYEYWGQGTQVTVSS
notes: as for B1
With B2 the binding result (mouse DLL3 on CHO cells) was “binds”, the DLL3 / control (DLL3 (ELISA DLL3)) was 65.7 and the “binning response (unit not given)” value [2] was 407. The Kd [10] was 5.15 nM, the “binning response (unit not given)” value [3] was 9.03 and the binding result (mouse DLL3 protein) was “binds”. The koff [11] was 0.00128 s⁻¹, the “binning response (unit not given)” value [6] was 0 and the “binning response (unit not given)” value [7] was 347. For the same binder, the “binning response (unit not given)” value [8] was 120, the kon [12] was 249000 M⁻¹ s⁻¹ and the “binning response (unit not given)” value [9] was 3510.

B3: anti-human DLL3 BiTE (bispecific antibody)
chain: QVQLQESGPGLVKPSETLSLTCTVSGGSISSYYWSWIRQPPGKGLEWIGYVYYSGTTNYNPSLKSRVTISVDTSKNQFSLKLSSVTAADTAVYYCASIAVTGFYFDYWGQGTLVTVSSGGGGSGGGGSGGGGSEIVLTQSPGTLSLSPGERVTLSCRASQRVNNNYLAWYQQRPGQAPRLLIYGASSRATGIPDRFSGSGSGTDFTLTISRLEPEDFAVYYCQQYDRSPLTFGGGTKLEIK
notes: also called DLL3 BiTEs
For B3, the “binning response (unit not given)” value [2] was 1500, the “binning response (unit not given)” value [3] was 0 and the “binning response (unit not given)” value [6] was 121. For the same binder, the “binning response (unit not given)” value [7] was 82.5, the “binning response (unit not given)” value [8] was 125 and the “binning response (unit not given)” value [9] was 1280.

B4: 2HCE117 anti-DLL3 VHH (VHH)
VHH: QVQLQESGGGLVQPGGSLRLSCAASGFTFSSYAMSWVRQAPGKGLEWVSDINSGGGSTYYADSVKGRFTISRDNAKNTLYLQMDSLKPEDTAVYYCATPFEIGSWGQGTQVTVSS
notes: as for B1
B4 was tested, and the binding result (mouse DLL3 on CHO cells) was “binds”, the koff [13] was 0.0006 s⁻¹ and the DLL3 / control (DLL3 (ELISA DLL3)) was 29.4. For the same binder, the “binning response (unit not given)” value [2] was -207, the “binning response (unit not given)” value [3] was -23.2 and the binding result (mouse DLL3 protein) was “binds”. The kon [14] was 5960 M⁻¹ s⁻¹, the Kd [15] was 101 nM and the “binning response (unit not given)” value [6] was -90.1. For the same binder, the “binning response (unit not given)” value [7] was -73, the “binning response (unit not given)” value [8] was -98.7 and the “binning response (unit not given)” value [9] was 0.
